Kd data for one molecule are collected here from article PMC4658703 (Science (New York, N.Y.), 2012).

Where two headings read alike, the source gives them in different places.

Test [1] concerns the target T1, Human IGF2R domain 11 (wild type) (human, UniProt P11717 1508-1650). Put plainly: SPR. Background: Surface plasmon resonance follows binding to a sensor surface in real time, without labels.
Test [2] has as its target T1, Human IGF2R domain 11 (wild type). Put plainly: SPR. The source holds these as a separate data set.

T1 sequence (P11717 1508-1650): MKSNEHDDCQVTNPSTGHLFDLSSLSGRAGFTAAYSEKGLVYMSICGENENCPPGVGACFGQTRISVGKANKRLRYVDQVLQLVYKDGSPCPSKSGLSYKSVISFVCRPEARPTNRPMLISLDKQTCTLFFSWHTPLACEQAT

B1: Chicken IGF2 (ligand, UniProt P33717 24-91, looked up)
chain: AYGTAETLCGGELVDTLQFVCGDRGFYFSRPVGRNNRRINRGIVEECCFRSCDLALLETYCAKSVKSE
modifications: ends and bridges not checked; also: biotin, site not given here
On to B1, for which the results for the Kd in test [1] and in test [2] were 46 nM and 63 nM, respectively.

The Kd is the constant that tells how readily two partners part at equilibrium.
